Test results published in publication PMC8892091.
Like-named read-outs stand apart in the source and are kept apart here.

B1: dsDNA1 (dsDNA)
DNA 1: AACTTCGTGCAGGCATGGGATCTTGTCTACT
DNA 2: AGTAGACAAGATCCCATGCCTGCACGAAGTT
B2: Bulge DNA1 (dsDNA)
DNA 1: AACTTCGTGCAGGCATGGGATCTTGTCTACT
DNA 2: AGTAGA
DNA 3: CATGCCTGCACGAAGTT
B3: Bubble DNA1 (dsDNA)
DNA 1: AACTTCGTGCAGGCATGGGATCTTGTCTACT
DNA 2: AGTAGACAAGCGACCATGCCTGCACGAAGTT
B4: Bulge DNA2 (dsDNA)
DNA 1: AACTTCGTGCAGGCATGGGATCTTGTCTACT
DNA 2: AGTAGACAACATGCCTGCACGAAGTT

Columns and labels:
[1] = biological target: MBP-ALKBH6ΔFlip3 (Homo sapiens, UniProt Q3KRA9 1-238, del139-158); assay: EMSA
[2] = biological target: T1, MBP-ALKBH6 WT (Homo sapiens, UniProt Q3KRA9 1-238); assay: EMSA
[3] = biological target: T2, ALKBH6 WT (Homo sapiens, UniProt Q3KRA9 1-238); assay: MST
[4] = biological target: MBP-ALKBH6 R225A/R228A (Homo sapiens, UniProt Q3KRA9 1-238, R225A;R228A); assay: EMSA
[5] = biological target: T1, MBP-ALKBH6 WT; assay: competition
[6] = biological target: ALKBH6ΔFlip3 (Homo sapiens, UniProt Q3KRA9 1-238, del139-158); assay: MST
[7] = biological target: T2, ALKBH6 WT; assay: MST; remark: listed apart in the source
[8] = biological target: T2, ALKBH6 WT; assay: MST; remark: listed apart in the source

Binder | binding result [2] | binding result [3] | other results
B1 | no binding | – | binding result [1]: binds
B2 | – | binds | –
B3 | – | binds | –
B4 | – | binds | –
GGATCAACAGTGCACAGTT (ssDNA) [ssDNA1 (FAM)] | binds | – | binding result [4]: binds
GGATCAACAGTGCACAGTT (ssDNA) [ssDNA1 (unlabelled)] | – | – | binding result [5]: binds
GATCCAGTGATCCAGT (ssDNA) [ssDNA3 (FAM)] | – | – | binding result [6]: binds; binding result [7]: binds
AAAAAAAAAAAAAAAAAAAAAAAAAAAAAA (ssRNA) [poly(A) 30 nt] | binds | – | binding result [8]: binds
